Laboratory results from patent US9127040B2, “Regulation of sodium channels by PLUNC proteins” (The University of North Carolina at Chapel Hill, priority 2011, dated 2015).
Ends that are not written are not given here.

T1: αENaC (Homo sapiens, UniProt P37088)
T1 sequence (P37088 1-669): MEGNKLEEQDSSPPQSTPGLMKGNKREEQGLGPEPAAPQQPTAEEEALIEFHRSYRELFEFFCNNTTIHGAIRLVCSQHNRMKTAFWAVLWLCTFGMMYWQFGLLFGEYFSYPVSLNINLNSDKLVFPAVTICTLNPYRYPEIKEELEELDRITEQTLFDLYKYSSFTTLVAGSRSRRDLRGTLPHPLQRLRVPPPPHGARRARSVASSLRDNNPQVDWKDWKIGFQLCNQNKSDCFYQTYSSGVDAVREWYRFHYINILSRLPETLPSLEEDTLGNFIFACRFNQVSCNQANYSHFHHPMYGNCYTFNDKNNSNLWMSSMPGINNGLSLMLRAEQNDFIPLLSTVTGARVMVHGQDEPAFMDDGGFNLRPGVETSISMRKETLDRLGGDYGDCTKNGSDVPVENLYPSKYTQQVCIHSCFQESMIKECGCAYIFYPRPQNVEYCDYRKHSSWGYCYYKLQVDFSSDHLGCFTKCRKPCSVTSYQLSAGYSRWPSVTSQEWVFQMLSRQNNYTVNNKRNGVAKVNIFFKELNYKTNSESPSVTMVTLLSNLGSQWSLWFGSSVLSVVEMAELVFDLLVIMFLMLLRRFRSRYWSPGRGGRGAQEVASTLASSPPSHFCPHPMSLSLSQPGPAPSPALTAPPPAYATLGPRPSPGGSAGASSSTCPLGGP


Key:
αENaC = target: T1, αENaC; test: Biotinylated peptide pull-down of ENaC subunits from HEK293T cells; format: binding; set-up: expressed in transfected cells; host or cells: HEK293T cells (lysate); conditions: subunits individually expressed
Method: HEK293T cells were transfected with double-tagged human ENaC subunits with HA and V5 epitopes at the N- and C-termini, respectively, in combination with wild-type untagged subunit cDNA. When all three ENaC subunits were expressed, 0.5 μg of each subunit were transfected per well. When expressed individually, 0.75 μg of the subunit were transfected per well. The transfected cells were lysed 24 h later using NP-40 buffer with 1× complete EDTA-free protease inhibitor (Roche, Basel, Switzerland). The lysate was centrifuged at 16,300×g for 15 minutes at 4° C. and the supernatant collected. Protein concentration was determined using the BCA assay and 500 μg of protein plus 0.25 mg peptide and 100 μL of neutravidin were added to a spin column and rotated end-over-end at 4° C. for 24 h (all ThermoFisher Scientific, Rockford, Ill., USA). Flow-through was collected by centrifugation at 1000×g for 30 s. […] The membrane was probed using 1:1000 anti-V5 antibody (Invitrogen, Carlsbad, Calif., USA) overnight at 4° C. in 3% fish gelatin in TBS-T. The blot was then incubated for 1 h at room temperature with an ECL sheep anti-mouse IgG secondary antibody and detected by ECL reagent (ThermoFisher Scientific, Waltham, Mass., USA) or by incubation with a goat anti-mouse IRDye secondary antibody and analyzed by an Odyssey infrared imaging system (LI-COR Biosciences, Lincoln, Nebr., USA).

serine proteases = test: Endogenous protease activity (BGAR-MCA cleavage) on mucosal surface of human bronchial epithelial cultures; format: cell-based
Method: For cell-free assays, reactions were carried out in 50 μl Ringer in a 96 well plate format with 100 μM BGAR-MCA. To measure endogenous protease activity in human bronchial epithelial cultures, 30 μl Ringer with 100 μM BGAR-MCA were placed directly onto the mucosal surfaces of human bronchial epithelial cultures grown on 12 mm T-clear inserts and the cultures were assayed in 12 well plates.

NL HBECs = test: ASL height by confocal microscopy in normal lung (NL) HBECs; format: cell-based, human; conditions: SPLUNC1 shRNA knockdown, 50 ng/ml rSPLUNC1 added to ASL
Method: To label airway surface liquid, Ringer containing Texas Red-dextran (2 mg/ml; Invitrogen) was added to human bronchial epithelial culture mucosal surfaces. Perfluorocarbon was added mucosally to prevent evaporation of the airway surface liquid and the culture placed in a chamber containing 100 μl Ringer on the stage of a Leica SP5 confocal microscope with a 63× glycerol immersion objective. 5 points per culture were scanned and an average airway surface liquid height determined. For confocal microscopy human bronchial epithelial cultures were bathed serosally in a modified Ringer solution containing (mM): 116 NaCl, 10 NaHCO3, 5.1 KCl, 1.2 CaCl2, 1.2 MgCl2, 20 TES, 10 glucose, pH 7.4). At all other times, human bronchial epithelial cultures were maintained in a modified BEGM growth medium which contained 24 mM NaHCO3 gassed with 5% CO2.
To label the ASL, PBS containing 10 kDa Rhodamine dextran (0.2-2 mg/mL; Invitrogen, Carlsbad, Calif., USA) was added to HBEC mucosal surfaces as previously described (Tarran et al., Mol. Cell 8:149 (2001)). When added, peptides with or without 100 nM neutrophil elastase, 1 U/mL aprotinin, activated neutrophil supernatant (ANS) (Haynes et al., Am. J. Physiol. Heart Circ. Physiol. 294:H379 (2008)) or 10 μM sivelestat (Sigma-Aldrich, St Louis, Mo., USA) were added to the mucosal surface along with the Rhodamine dextran. Bumetanide (100 μM) was added to the serosal solution.

| Molecule | binding to αENaC (pull-down) (αENaC) | BGAR-MCA cleavage on human bronchial epithelial mucosal surfaces (serine proteases) | regulation of airway surface liquid height in cultures lacking SPLUNC1 (NL HBECs) | regulation of airway surface liquid height in cultures lacking SPLUNC1 (NL HBECs; listed as recombinant SPLUNC1) |
| --- | --- | --- | --- | --- |
| GGLPVPLDQTLPLNVNPA [S18] | without any detectable binding |  |  |  |
| SPLUNC1: human SPLUNC1 (SEQ ID NO:1), 256 amino acid secreted PLUNC family protein; rSPLUNC1 is the purified V5/6His-tagged recombinant form (protein, listed as Homo sapiens, V5/6His tag in recombinant form, rSPLUNC1 is the purified V5/6His-tagged recombinant form) MFQTGGLIVFYGLLAQTMAQFGGLPVPLDQTLPLNVNPALPLSPTGLAGSLTNALSNGLLSGGLLGILENLPLLDILKPGGGTSGGLLGGLLGKVTSVIPGLNNIIDIKVTDPQLLELGLVQSPDGHRLYVTIPLGIKLQVNTPLVGASLLRLAVKLDITAEILAVRDKQERIHLVLGDCTHSPGSLQISLLDGLGPLPIQGLLDSLTGILNKVLPELVQGNVCPLVNEVLRGLDITLVHDIVNMLIHGLQFVIKV |  | no significant affect | restored | sufficient to restore ASL volume regulation |
